# B1: HDV Ribozyme (parent)
# chain: GGCCGGCAUGGUCCCAGCCUCCUCGCUGGCGCCGGCUGGGCAACAUUCCGAGGGGACCGUCCCCUCGGUAAUGGCGAAUGGGACCCA
# Variants of: B1
# Test: self-cleavage, relative activity (ratio to wild type); higher = more cleavage; co-transcriptional
row,Variant,self-cleavage
1,GGCCGGCAUGGUCCCAGCCUCCUCGCUGGCGCCGGCUGGGCAACAUUCCGAGGGGACCUUCCCCUCGGUAAUGGCGAAUGGGACGCA,0.695
2,GGCCGGCAUGGUCCCAGCCUCCUCGCUGGCGCCGGCUGGGCAACAUUCCGAGGGGACCGUUCCCUCGGUAAUGGCGUAUGGGACCCA,0.475
3,GGCCGGCAUGGUCCCAGCCUCCUCGCUGGCGCCGGCUGGGCAACAUUCCGAGGGGACCGUCCCCUCGGUGAUGGCGAAUGGGACGCA,0.831
4,GGCCGGCAUGGUCCCAACCUCCUCGCUGGCGCCAGCUGGGCAACAUUCCGAGGGGACCGUCCCCUCGGUAAUGGCGAAUGGGACCCA,0.117
5,GGCCGGCAUGGUCCCAGCCUCCUCGCUGGCGCCGGCUGGGCAACAUUCCAAGGGGACCGUCCACUCGGUAAUGGCGAAUGGGACCCA,0.436
6,GGCCGGCAUGGCCCCAGCCUCCUCGCAGGCGCCGGCUGGGCAACAUUCCGAGGGGACCGUCCCCUCGGUAAUGGCGAAUGGGACCCA,0.506
7,GUCCGGCAUGGUCCCAGCCUCCUCGCUGGCGCCGGCUGGGCACCAUUCCGAGGGGACCGUCCCCUCGGUAAUGGCGAAUGGGACCCA,0.0292
8,GGCCGGCAUGGUCCCAGCCUCCUCGCUGUCGCCGGCUGGGCAACAUUCCGAGGGCACCGUCCCCUCGGUAAUGGCGAAUGGGACCCA,0.0692
9,AGCCGGCAUGGUCCCAGCCUCCUCGCUGGCGCCGGCUGGGCAACAUUCCGAGGGGACCGUCCCCUCGGUAAUGGCGAAUGGGAACCA,0
10,GGCCGGCAUGGUCGCACCCUCCUCGCUGGCGCCGGCUGGGCAACAUUCCGAGGGGACCGUCCCCUCGGUAAUGGCGAAUGGGACCCA,0.0615
11,AGCCGGCAUGGUCCCAGCCUCCUCGCUGGCGCCGGCUGGGCAACAUUCCGAGGGAACCGUCCCCUCGGUAAUGGCGAAUGGGACCCA,0.0519
12,GGCCGGCAUGGUCCCAGCCUCCUCGCUGGCGACGGCUGGGCAACAUUCCUAGGGGACCGUCCCCUCGGUAAUGGCGAAUGGGACCCA,0.178
13,GGCCGGCAUGGUCCCAGCCUCCUCGCUAGCGCCGGCUGGGCAACAUUCCGAUGGGACCGUCCCCUCGGUAAUGGCGAAUGGGACCCA,0.0475
14,GGCCGGCAGGCUCCCAGCCUCCUCGCUGGCGCCGGCUGGGCAACAUUCCGAGGGGACCGUCCCCUCGGUAAUGGCGAAUGGGACCCA,0.594
15,GGCCGGCAUGGUCCCAGCCUCCUCGCCGGCGCCGGCUGGGCAACAUUCCGAGGGGACCGUCCCCUCGCUAAUGGCGAAUGGGACCCA,0.511
16,GGCCGGCAUGGUCCCAGCCUCCUCGCUGGCGCCGGCUGGGCAACAUUCCGAGGGGACCGUCCCCUCGGUAAUGGAGAAUGGGGCCCA,0.0567
17,GGCCGGCAUGGUCCCCGCCUCCUCGCUGGCGCCGGCUGGGCAACGUUCCGAGGGGACCGUCCCCUCGGUAAUGGCGAAUGGGACCCA,1.05
18,GGCCGCCAUGGUCCCAGCCUCCUCGCUGGCGCCGGCUGGGCAACAUUCCGAGGGGACCGUCCCCUCGGUAAUGGCGAAUGGUACCCA,0.122
19,GGCCGGCAUGGUCGCAGCCUCCUCGCUGGCGCCGGCUGGGCAACAUUCCGAGGGGACCGUCCCCUCGGUAAGGGCGAAUGGGACCCA,0.312
20,GGCCGGCAUGGUCCCAGCCUCCCCGCUGGCGCCGGCUGGGCAACAUUUCGAGGGGACCGUCCCCUCGGUAAUGGCGAAUGGGACCCA,0.806
21,GGCCGGCAUGGUCCCAGCCUCCUCGCUGGUGCCGGCUGGGCAACAUUCCGGGGGGACCGUCCCCUCGGUAAUGGCGAAUGGGACCCA,0.784
22,GGCCGGCAUGGUCCCAGCCUCCUCGCUGGAGCCCGCUGGGCAACAUUCCGAGGGGACCGUCCCCUCGGUAAUGGCGAAUGGGACCCA,0.119

row,Variant,self-cleavage
1,GGCCGGCAUGGUCCCAGCCUCCUCGCAGGCGCCGGCUGGGCAACAUUCCGAGGGGCCCGUCCCCUCGGUAAUGGCGAAUGGGACCCA,0.914
2,GGCCGGCAUGGUCCCAGCCUCCUCGCUGGCGACGGCUGGGCAACAUUCCGAGGGGGCCGUCCCCUCGGUAAUGGCGAAUGGGACCCA,0.252
3,GGCCGGCAUGGUCCCAGCCUCCUCGCUGGCGCCGGCCGGGCACCAUUCCGAGGGGACCGUCCCCUCGGUAAUGGCGAAUGGGACCCA,0.308
4,GGCCGGCAUGGUCCCAGCCUCCUAGCUGGCGCCGGCUGGGCAACAUUCCGAGGGGACCGUCCCCUCGGUAAUGGCGAACGGGACCCA,0.12
5,GGCCGGCAUGGUCCCAGCCUCCACGCUGGCGCCGGCUGGGCAACAUUCGGAGGGGACCGUCCCCUCGGUAAUGGCGAAUGGGACCCA,1.16
6,GGGCGGCAUGGUCCCAGCCUCCUCGCUGGCGCCGGCUGGGCAACAUUCCGAGGGGACCGUCCCUUCGGUAAUGGCGAAUGGGACCCA,0.726
7,GGCCGGCAUGGUCCCAGCCUCCUCGCUGGCGCCGGCUGGGCAACAUUCCGAGGUCACCGUCCCCUCGGUAAUGGCGAAUGGGACCCA,0.953
8,GGCCGGCAUGGUCCCAGCCUCCUCGCUGGCGCCGGCUGGGCAACAUUCCGAGGCGCCCGUCCCCUCGGUAAUGGCGAAUGGGACCCA,0.864
9,UGCCGGCAAGGUCCCAGCCUCCUCGCUGGCGCCGGCUGGGCAACAUUCCGAGGGGACCGUCCCCUCGGUAAUGGCGAAUGGGACCCA,0.389
10,GGCCGGCAUGGUCCCAGCCUCCUCGCUGGCGCCGGCUGGGCAACAUUCCGAGGGGACUGUCCCCUCGGUAAUGGCGGAUGGGACCCA,0.929
11,GGCCGGCAUGGUCCCAGCCUCCUCGCUUGCGCCGGCUGGGCAACAUUCCGAGGGGACCGUGCCCUCGGUAAUGGCGAAUGGGACCCA,0.0678
12,GGCCGGCAUCGUCCCAGCCUCCUCGCUGGCGCCGGCUCGGCAACAUUCCGAGGGGACCGUCCCCUCGGUAAUGGCGAAUGGGACCCA,0.0941
13,GGCCGGGAUGGUCCCAGCCUCCUCGCUGGCGCCGGCUGGGCAACAUUCCGAGGGGACCGUCCCCUCGGUAAUGGCGAAUGCGACCCA,0
14,GGCCGGCAUGGUACCAGCCUCCUCGCUGGCGCCGGGUGGGCAACAUUCCGAGGGGACCGUCCCCUCGGUAAUGGCGAAUGGGACCCA,0.192
15,GGCCGGCAUAGUCCCAGCCUCCUCGCUGGCGCCGGCUGGGCAACAUUCCGAGGGGACGGUCCCCUCGGUAAUGGCGAAUGGGACCCA,0.939
16,GGCCGGCAUGGUCCCAGCCUCCUAGCUGGCGCCGGCUGGGCAACAUUCCGAGGGGACCGUCCCCUCGGUAAUGGCGUAUGGGACCCA,0.185
17,GGCCGGCAUGGUCCCAGCCUCGUCGCUGGCGCCGGCUGGGCAACAUUCCGAGGGGACCGUCCCCUCGGUAAUUGCGAAUGGGACCCA,0
18,GGGCGGCAUGGUCCCAGCCUCCUCGCUGGCGCCGGCUGGGCAACAUUCCGAGGGGACCGUCCCCUCGGUAAUGGCGAAUGGGCCCCA,0.191
19,GGCCGGCAUGGUCCCAGACUCCUCGCUGGCGCCGGCUGGGGAACAUUCCGAGGGGACCGUCCCCUCGGUAAUGGCGAAUGGGACCCA,0.0554
20,GGCCGGCAUGGUCCCAGCCUUCUCGCUGGCGCCGGCUGGGCAACAUUCCGAGGGGACUGUCCCCUCGGUAAUGGCGAAUGGGACCCA,0.203
21,GGCCGGCACGGUCCCAGCCUCCUCGCUGGCGCCGGCUGGGCAACAUUCCGAGGGGUCCGUCCCCUCGGUAAUGGCGAAUGGGACCCA,1.04
22,GGCCGGCAUGGUCCCAGCCCCCUCGCUGGCGCCGGCUGGGCAACAUUCCGAGGGGACCGUCCCCUCGGUAAUGGCCAAUGGGACCCA,0.0773

row,Variant,self-cleavage
1,GGCCGGCCUGGUCCCAGCCUCCUCGCUGGCGCCGGCUGGGCAACAUUCCGAGGCGACCGUCCCCUCGGUAAUGGCGAAUGGGACCCA,0.746
2,GGCCGGUAUGGUCGCAGCCUCCUCGCUGGCGCCGGCUGGGCAACAUUCCGAGGGGACCGUCCCCUCGGUAAUGGCGAAUGGGACCCA,0.308
3,GGCCGGCAUGGUCCCAGCCUCCUCGCUGGCGCCGGCUGGGUAACAUUCCGAGGGGACCGUCCCCUCCGUAAUGGCGAAUGGGACCCA,0.554
4,GGCCGGGAUGGUCCCAGCCUCCUCGCUGGGGCCGGCUGGGCAACAUUCCGAGGGGACCGUCCCCUCGGUAAUGGCGAAUGGGACCCA,0.119
5,GGCCGGCAUUGUCCCAGCCUCCUCGCUGGCGCCGGCUGGGCAACAUUCCGAGGGGACCGUCCCGUCGGUAAUGGCGAAUGGGACCCA,0.669
6,GGCCGGUAUGGUCCCAGCCUCCUCGCUGGCGCCGGCUGGGCAACUUUCCGAGGGGACCGUCCCCUCGGUAAUGGCGAAUGGGACCCA,0.415
7,GGCCGGCAUGGUCCCAGCCUCCUCGCUGGCGCCGGCUGGGCAACAUUCCAAGGGGACCGUCCCAUCGGUAAUGGCGAAUGGGACCCA,0.479
8,GGCCGGCAUGGUCCCAGCCUCCUCGCUGGCGCCGGCUGGGCAAAAUUCCGAGGGGACCGUCGCCUCGGUAAUGGCGAAUGGGACCCA,0.162
9,GGCCGGCAUGGUCCCAGCCACCUCGCUUGCGCCGGCUGGGCAACAUUCCGAGGGGACCGUCCCCUCGGUAAUGGCGAAUGGGACCCA,0.0386
10,GGCCGGCAUGGUCCCAGCCUCCUCGCUGGCGCGGGCUGGGCAACAUUCUGAGGGGACCGUCCCCUCGGUAAUGGCGAAUGGGACCCA,0.0923
11,GGCGGGCAUGGUCCCAGCCUCCUGGCUGGCGCCGGCUGGGCAACAUUCCGAGGGGACCGUCCCCUCGGUAAUGGCGAAUGGGACCCA,0.0426
12,GGCCGGCAUGGUCCCAGCCUCCUCGCUGGCGCCGGCUGGGCGACAUUCCGAGGGGACCGUCCCCUCGGUAAUGGCGAAUGAGACCCA,0.106
13,GGCCGGCAUGGUCCCAGCCUCCUCGCUGGCGCCGGCUGGGCAACAUUCCGAGGGGACCGGCCCCUCGGUAAUGGCGAAUGGGAACCA,0.752
14,GGCCGGCAUGGUCCCAGCCUCCUCGCUGGCGCCGGCUGGGCAACAUUCCGAGGGGACCGUCCGCUCGGUAAUGGCGAAUGGAACCCA,0.219
15,GGCCGGCAUGGUCCCAGCCUCCUCGCUGGAGCCGGCUGGGCAACAUUCCGAGGGGAACGUCCCCUCGGUAAUGGCGAAUGGGACCCA,0.688
16,GGCCGGCAUGGUCCCAGCUUCCUCGCUGGCGCCGGCUGGGCAACAUUCCGAGGGGACCGUCCCCUCGGUAAUGACGAAUGGGACCCA,0.0961
17,AGCCGGCAUGGUCCCAGCCUCCCCGCUGGCGCCGGCUGGGCAACAUUCCGAGGGGACCGUCCCCUCGGUAAUGGCGAAUGGGACCCA,0
18,GACCGGCAUGGUCCCAGCCUCCUCGCUGGCGCCGGCUGGGCAACAUUCCGAGGAGACCGUCCCCUCGGUAAUGGCGAAUGGGACCCA,0.194
19,GGCCGGCAUGGUCCCAGCCUCCUCGCUGGCGCCGGCUGGGCAACAUUCCGAGGGGACCGUUCCCUCGGUAAUGGCGAAUGGGACCUA,1.03
20,GGCCGGCAUGGUCCAAGCCUCCUCGCUGGCGCCGGCUGCGCAACAUUCCGAGGGGACCGUCCCCUCGGUAAUGGCGAAUGGGACCCA,0.107
